In PMC4452343, “Monitoring β-arrestin recruitment via β-lactamase enzyme fragment complementation: purification of peptide E as a low-affinity ligand for mammalian bombesin receptors” (PLoS ONE, 2015) one finds EC50 of NFAT-luciferase reporter activation in CHO cells expressing hBRS3 and EC50 of NFAT-luciferase reporter activation in CHO cells expressing hNMBR data, which are given here for two substances.

Test [1] deals with human bombesin receptor subtype 3 (human) (UniProt P32247).
The target of test [2] is neuromedin B receptor (human) (UniProt P28336).
neuromedin B receptor (human), sequence (P28336 whole entry): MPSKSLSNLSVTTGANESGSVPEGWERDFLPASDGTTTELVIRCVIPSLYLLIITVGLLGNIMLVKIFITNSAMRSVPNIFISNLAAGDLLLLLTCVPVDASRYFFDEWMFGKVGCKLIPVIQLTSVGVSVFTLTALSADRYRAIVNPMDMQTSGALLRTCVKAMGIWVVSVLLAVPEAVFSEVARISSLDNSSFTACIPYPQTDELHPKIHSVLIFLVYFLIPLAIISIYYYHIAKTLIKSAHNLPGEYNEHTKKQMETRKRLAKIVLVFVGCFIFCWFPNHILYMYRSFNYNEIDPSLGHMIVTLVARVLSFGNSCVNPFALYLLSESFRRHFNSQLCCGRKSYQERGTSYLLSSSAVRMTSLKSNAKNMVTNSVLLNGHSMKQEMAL

human bombesin receptor subtype 3 (human), sequence (P32247 whole entry): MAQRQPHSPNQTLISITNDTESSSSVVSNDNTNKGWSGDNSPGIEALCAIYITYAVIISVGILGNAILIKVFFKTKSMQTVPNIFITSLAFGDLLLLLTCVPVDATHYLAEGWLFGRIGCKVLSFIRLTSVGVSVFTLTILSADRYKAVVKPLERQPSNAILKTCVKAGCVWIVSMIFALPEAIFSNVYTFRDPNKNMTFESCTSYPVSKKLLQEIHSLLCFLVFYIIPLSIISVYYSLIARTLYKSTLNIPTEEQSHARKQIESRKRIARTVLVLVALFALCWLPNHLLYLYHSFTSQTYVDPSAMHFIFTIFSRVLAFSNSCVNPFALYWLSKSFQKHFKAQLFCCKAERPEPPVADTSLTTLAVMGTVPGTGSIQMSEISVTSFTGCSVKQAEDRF

In test [1], “[D-Phe^6, ß-Ala^11, Phe^13, Nle^14]-Bombesin (6–14) (peptide)” returned an EC50 of NFAT-luciferase reporter activation in CHO cells expressing hBRS3 of 8.8 nM.
On to neuromedin B (peptide), for which the EC50 of NFAT-luciferase reporter activation in CHO cells expressing hNMBR in test [2] was found to be 0.16 nM.
